{
  "source": "paper PMC11630628",
  "about": "(Molecular Plant, 2024)",
  "molecules": {"B1": {"name": "SERINE-RICH ENDOGENOUS PEPTIDE 10 (peptide)", "peptide": "ALPYHHELFLGRKRMNYYKPNSAIGTPSSTSDHAPGSNGRKLMSIYRPNGDIFTGPSGSGHGGGRTPAP", "notes": "processed from PROSCOOP10; synthesized by GenScript"}},
  "key": {"[1]": {"tested_on": "Arabidopsis WT (Col-0) detached rosette leaves", "assay": "Detached leaf senescence assay, WT", "type": "in vivo, Arabidopsis thaliana", "description": "(§1) A. thaliana ecotype Columbia-0 and mutants used in this study include mik2-1 (SALK_06269), mik2-2 (CS419958), proscoop10-1 (SALK_080439), and proscoop10-2 (SALK_027949), which were obtained from ABRC. The proscoop12 CRISPR-Cas9-generated mutants were kindly provided by Dr. Elia Stahi at the University of Lausanne, Switzerland ([Stahl et al., 2022]). Imbibed seeds were incubated at 4°C in a refrigerator for 2 days before sowing on the soil mix (3 parts commercial soil: 1 parts vermiculite) and grown under the long-day condition (16 h light/8 h dark) in a growth chamber with 150 μmol m^−2 s^−1 light intensity. For the senescence phenotyping of detached leaves, the fifth and sixth rosette leaves of 25-day-old plants were removed and placed in Petri dishes with the adaxial side facing up. The Petri dishes were sealed with parafilm to prevent water loss, and the leaves were incubated with deionized water. The application of exogenous peptides followed the previously established method ([Zhang et al., 2022a], [2022b]). […] All data including plant phenotypes and gene expression presented in this study were analyzed with GraphPad Prism 9, and at least three biological replicates were included in each experiment. Chl content, photochemical efficiency of PSII (Fv/Fm ratio), and ion leakage were determined as previously described ([Zhang et al., 2020], [2022b]; [Guo et al., 2022])."}, "[2]": {"tested_on": "6× His-tagged ectodomains of MIK2", "assay": "Competitive pull-down assay", "type": "binding, Arabidopsis thaliana", "conditions": "50 nM MIK2 ectodomain, 250 nM biotinylated SCOOP10 or SCOOP12, 1 h, then increasing concentrations of the other peptide; anti-His Western blot, densitometry; three replicates", "description": "(§2) Subsequently, 30 μL streptavidin magnetic beads (New England Biolabs) were added to each sample and incubated for 1 h at 4°C, followed by washing 5–6 times with 1.0 mL of interactive buffer. The proteins bound to the beads were then eluted using interactive buffer containing 5× SDS loading buffer, and western blot analysis was conducted as previously described ([Lan et al., 2023]). In the competitive binding assay, 50 nM purified MIK2 protein featuring a His-tag at its C-terminal was initially mixed with 250 nM of biotinylated SCOOP10. […] After thorough mixing, the beads underwent 5–6 washes to meticulously remove any residual proteins, and then the preparations were subjected to detailed analysis via western blotting to probe the interactions."}, "[3]": {"tested_on": "MIK2-dependent plant immune response", "conditions": "ref Hou et al., 2021b, Rhodes et al.; cited from earlier work", "description": "Senescence, a crucial biological event in plant development, involves the coordinated breakdown of cellular components to recycle nutrients, aiding adaptation to changing environments. It optimizes nutrient storage and reuse, particularly in leaves, the primary photosynthetic organs. Initiation of leaf senescence prompts various physiological changes, including chlorophyll (Chl) reduction and macromolecule degradation, enabling nutrient recycling that supports the growth of seeds and fruits ([Yang et al., 2014]; [Kim et al., 2018]; [Woo et al., 2019]; [Guo et al., 2021]). Efficient senescence ... || MIK2 was also linked to cell wall integrity ([Van der Does et al., 2017]; [Coleman et al., 2020]) and disease resistance ([Van der Does et al., 2017]). MIK2 was reported to function in elicitor perception in response to infection by Fusarium spp. fungi ([Van der Does et al., 2017]; [Coleman et al., 2020]). […] Loss-of-function in p ..."}, "PROSCOOP12 transcript": {"tested_on": "PROSCOOP12 transcript", "assay": "qPCR expression of PROSCOOP12 in detached leaves", "type": "cell-based, Arabidopsis thaliana", "description": "Total RNA was isolated from Arabidopsis leaves with the RNAiso Plus (TAKARA) and reverse transcribed using the PrimeScript RT reagent Kit (TAKARA). qPCR reactions were implemented in an Applied Biosystems 7500 Real-Time PCR system with the SYBR Premix Ex Taq II (TAKARA). ACTIN was used as the reference gene for qPCR analyses. The primers used for qPCR are listed in Supplemental Table 2."}, "bak1 mutants": {"tested_on": "bak1 mutants", "set-up": "method as in Hou et al., 2021b", "conditions": "ref Hou et al., 2021b; cited from earlier work"}, "[4]": {"tested_on": "purified His-tagged MIK2 ectodomain", "assay": "Pull-down assay with biotinylated peptides", "type": "binding, Arabidopsis thaliana", "conditions": "biotinylated peptide, streptavidin magnetic beads, 20 mM Tris-HCl pH 7.3, 150 mM NaCl, 0.1% NP-40, anti-His Western blot, repeated three times, conclusion also rests on MST", "description": "as §2"}, "[5]": {"tested_on": "MIK2-GFP (pMIK2::MIK2-GFP/mik2-1 plants)", "assay": "MIK2-phosphorylation assay in detached leaves", "type": "cell-based, Arabidopsis thaliana", "conditions": "5 μM peptide, 0, 1, 2, 4 h, pMIK2::MIK2-GFP/mik2-1 leaves; GFP IP, anti-pThr blot; vs mock", "description": "Transgenic A. thaliana T3 homozygous plants expressing MIK2-GFP under the control of its native promoter were grown under long-day conditions (16 h light/8 h dark) for 4 weeks before sampling. […] Leaves were subjected to vacuum infiltration at room temperature for 30 min. Following treatment, the leaves were rapidly frozen in liquid nitrogen and ground into a fine powder. […] The samples were incubated for 30 min at 4°C with gentle agitation, followed by centrifugation at 14 000 rpm for 20 min at 4°C to remove debris. The supernatant was then incubated with anti-GFP agarose beads (Abcam, AE079) overnight at 4°C for immunoprecipitation (IP). […] The 30-μL eluted proteins were resolved on 7.5% SDS-PAGE gels and transferred onto polyvinylidene fluoride membranes. […] Abcam, AB6556), goat anti-rabbit immunoglobulin G (IgG) (H + L)-horseradish peroxidase (HRP) antibody (1:4000; Abcam, AB6721) and its phosphorylation status using anti-pThr antibodies (1:750, Cell Signaling, 9386), goat anti-mouse IgG (H + L)-HRP antibodies (1:2000; Abcam, AB6789), respectively."}, "[6]": {"tested_on": "Arabidopsis mik2 mutant detached rosette leaves", "assay": "Detached leaf senescence assay, mik2 mutants", "type": "in vivo, Arabidopsis thaliana", "conditions": "SCOOP10 1 μM (Figures 3A–3C)", "description": "as §1"}},
  "data": [
    {"molecule": "B1", "values": [
      {"measurement": "senescence phenotype, SCOOP10 alone (sequential assay control)", "setting": "[1]; SCOOP10 alone, Figures 5D and 5E, n = 8 leaves per replicate", "result": "significant senescence phenotypes"},
      {"measurement": "leaf senescence phenotype, detached leaves", "setting": "[1]; exogenous peptide, SCOOP10 1 μM for 5 days (Figure 2A, 2B; Supplemental Figure 3)", "result": "premature senescence phenotype in detached leaves"},
      {"measurement": "competition for MIK2 binding (pull-down signal)", "setting": "[2]", "result": "the SCOOP12-MIK2 complex resulted in a stable interaction with SCOOP10 application at the concentrations tested"},
      {"measurement": "immune response (published)", "setting": "[3]", "result": "inducing plant immune responses"},
      {"measurement": "PROSCOOP12 expression", "setting": "PROSCOOP12 transcript; 1 μM peptide, no pretreatment, detached leaves, vs mock, qPCR", "result": "induce the expression of PROSCOOP12 within 1 h"},
      {"measurement": "PROSCOOP12 expression, SCOOP10 pretreatment then SCOOP10", "setting": "PROSCOOP12 transcript; pretreated with SCOOP10 24 h, treated with SCOOP10 for 1, 5 and 10 h", "result": "even stronger"},
      {"measurement": "sensitivity of bak1 mutants (root growth inhibition, published)", "setting": "bak1 mutants", "result": "sensitive to SCOOP10 application"},
      {"measurement": "interaction with MIK2 ectodomain", "setting": "[4]", "result": "SCOOP10 interacts with MIK2"},
      {"measurement": "MIK2 kinase phosphorylation", "setting": "[5]", "result": "MIK2 phosphorylation decreased drastically over time compared to the mock controls"},
      {"measurement": "senescence induction, WT compared with mik2 mutants", "setting": "[6]", "result": "More profound senescence was induced by SCOOP10 treatments in WT than in mik2 mutant plants"}
    ]}
  ]
}
